Like-named read-outs stand apart in the source and are kept apart here.

This is an account of results in patent US20250051468A1 (INNOLAKE BIOPHARMA HANGZHOU, published 2025).

In assay [1] the target is T1, human OX40 expressed on cells (293T-OX40, Jurkat-OX40) (human, UniProt P43489 29-277).
T1 construct: whole, on cells; the construct transfected into the cells is not described; also called CD134; ACT35
T1 sequence (looked up): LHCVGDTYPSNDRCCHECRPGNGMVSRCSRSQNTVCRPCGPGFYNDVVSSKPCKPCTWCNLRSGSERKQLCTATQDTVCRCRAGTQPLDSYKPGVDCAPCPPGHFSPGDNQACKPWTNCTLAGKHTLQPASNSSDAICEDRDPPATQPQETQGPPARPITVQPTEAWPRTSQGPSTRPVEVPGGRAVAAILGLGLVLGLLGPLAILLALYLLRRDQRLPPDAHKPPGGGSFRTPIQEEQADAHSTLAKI
Description: FACS on 293T-OX40 cells. The method, then: (§1) (3) FACS Screening for Antibodies Binding to OX40-ECD. 50 μL of the hybridoma supernatant tested positive in the ELISA tests was pipetted and mixed with 50 μL of 293T-OX40 cells (1×10⁵ cells/well), and the mixture was added to a 96-well plate with a U-shaped bottom and incubated for 1 hour. After the mixture was centrifuged and washed twice with FACS buffer (PBS+3% FCS), PE-labeled goat anti-mouse secondary antibody (Biolegend, Cat. No.: 405307) diluted at 1:400 was added, the mixture was incubated for 30 minutes, and washed with FACS buffer, and then PE signal of 293T-OX40 cells was detected using a BD C6 flow cytometer.
Purified humanized antibody samples were tested for their binding to OX40 using FACS and for their ability to block the OX40L/OX40 signaling pathway using a reporter gene assay. The specific methods are referenced from Example 1. The results are shown in Table 6, Table 7, FIG. 7 and FIG. 8. The effects of the humanized antibodies on the function of primary T cells were tested, including an MLR response test of the inhibitory effect of the OX40 humanized antibody on the proliferation of CD4+ T cells, and a test of the inhibitory effect of the OX40 humanized antibody on the proliferation of CD8+ T cells induced by CEF.

The target of assay [2] is T1, human OX40 expressed on cells …. Description: cell-based or functional assay.
Assay [3] has the same target. As to the kind of experiment: cell-based or functional assay. This is another data set of the same source.
Assay [4] shares this target. As to the kind of experiment: cell-based or functional assay. The source holds these as a separate data set.
The next assay concerns the target T2, OX40-ECD-hFc (human, UniProt P43489 29-214).
T2 construct: extracellular domain; Coated on the ELISA plate; also called OX40-hFc protein; not shown: human Fc (hFc)
T2 sequence (looked up): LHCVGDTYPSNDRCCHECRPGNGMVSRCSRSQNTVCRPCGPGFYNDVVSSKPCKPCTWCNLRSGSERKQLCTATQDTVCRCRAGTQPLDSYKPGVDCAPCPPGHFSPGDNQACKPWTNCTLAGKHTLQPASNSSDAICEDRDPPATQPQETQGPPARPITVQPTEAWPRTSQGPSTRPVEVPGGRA
As to the kind of experiment: ELISA, OX40-ECD-hFc coated on plate. The method, then: (2) ELISA Screening for Antibodies Binding to OX40-ECD. 96-well ELISA plate (Corning, Cat. No.: 9018) was inoculated with OX40-ECD-hFc, left at 4° C. overnight, and washed 3 times with wash buffer (PBS+0.05% Tween 20), then blocking buffer (PBS+1% BSA (Sigma, Cat. No.: V90093)) was added, and the 96-well ELISA plate was incubated for 1 hour and washed 3 times; hybridoma supernatant was added, the 96-well ELISA plate was incubated for 1 hour and washed 3 times; and 100 μL of goat anti-mouse IgG secondary antibody (Thermo, Cat. No.: 31432) diluted at 1:10000 was added to each well, and the 96-well ELISA plate was incubated at room temperature for 1 hour and washed 3 times. 100 µL of TMB (Biosubstrate Technologies, Cat. No.: ES-002) was added to each well and left for 3 minutes for color development, then a stop solution (2N H₂SO₄) was added at a dose of 100 μL/well to terminate the reaction, and the OD450 signal of each sample was measured with a Tecan Spark microplate reader.
(§2) The activity of the purified antibody sample to bind OX40 and block the binding of OX40 to OX40L was tested via ELISA and FACS. Specific methods are described in steps (2), (3) and (4) in Example 1. 6 monoclonal OX40 hybridoma antibodies 1G2, 3G4, 9G7, 177G5, 118A10 and 119H2 were tested. Test results are shown in Table 1 to Table 3 and FIGS. 1 to 3.
For orientation: An ELISA detects its analyte on a solid surface through an enzyme-linked reagent.

The target of assay [5] is T1, human OX40 expressed on cells …. As to the kind of experiment: FACS on 293T-OX40 cells. The method, then: as §1, §2
This is another data set of the same source.

B1: humanized anti-OX40 antibody hu9G7-DE (antibody, V domains shown)
VH: EVQLVESGGGLVQPGGSLRLSCAASGFTFSDYYMYWVRQAPGKGLEWVAYISNGDISTYYPDTVKGRFTISRDNAKNSLYLQMNSLRAEDTAVYYCARDDGYSAWFAYWGQGTTVTVSS
VL: DIVMTQSPDSLAVSLGERATINCKSSQSLLNSSNQKNYLAWYQQKPGQPPKLLVYFASTRESGVPDRFSGSGSGTDFTLTISSLQAEDVAVYYCQQHYYTPFTFGQGTKLEIK
notes: Constructed as human IgG1 with constant region Ser239, Ala330 and Ile332 mutated to Asp, Leu and Glu; also called humanized antibody 9G7; combination C'
As a reminder, the EC50 is the concentration needed to bring the measured effect to its halfway point. Low readings indicate a more potent agent, high ones a less potent agent. In the case of B1, in assay [1], the midpoint of the response, the EC50, lay at 0.0623 µg/mL. In assay [2], the “IC50 of reporter gene assay (NF-kB-luciferase, Jurkat-OX40 cells + OX40L)” value (shortened to “IC50 of reporter gene assay”) was determined as 0.0575 µg/mL. Also, in assay [3], the “EC50 of ADCC activity (LDH release, Jurkat-OX40 target cells + PBMC)” value (shortened to “EC50 of ADCC activity”) stood at 0.00143 µg/mL.

B2: humanized anti-OX40 antibody hu3G4-DE (antibody, V domains shown)
VH: QVQLVQSGAEVKKPGASVKVSCKASGYRFTSYVLHWVRQAPGQRLEWIGYVNPFNDNTRYNEKFKARATLTSDKSASTAYMELSSLRSEDTAVYYCSRGLYDYSYVMDYWGQGTLVTVSS
VL: DIQMTQSPSSLSASVGDRVTITCQASQDIRNYLNWYQQKPGKAPKLLIYHTSKLHSGVPSRFSGSGSGTDFTFTISSLQPEDIATYYCQQSNTLPYTFGQGTKLEIK
notes: Constructed as human IgG1 with constant region Ser239, Ala330 and Ile332 mutated to Asp, Leu and Glu; also called humanized antibody 3G4; combination B'
With B2, it took 0.0713 µg/mL to reach a half-maximal effect in assay [1] (EC50). In addition, the “IC50 of reporter gene assay” value in assay [2] is 0.0181 µg/mL. Further, the “EC50 of ADCC activity” value in assay [3] is 0.00152 µg/mL.

B3: murine OX40 hybridoma antibody 118A10 (antibody, V domains shown)
VH: EVKLDETGGGLVQPGRPMKLSCVASGFTFSDYWLNWVRQSPEKGLEWVAQIRNKPYHYETFYSESVKGRFTISRDDSKSSVYLQMNDLRGEDTGIYYCTGYFDYWGQGTTLTVSS
VL: DIVLTQSPASLTISLGQRATISCRASQSVSTSTYSYIHWYQQKPGQPPRLLIKYASNLESGVPARFSGSGSGTDFTLNIHPVEEEDTATYYCQHSWGIPPTFGGGTKLEIKR
notes: Purified murine monoclonal hybridoma antibody
With B3, the “IC50 of reporter gene assay” value in assay [4] was 0.198 µg/mL. For the same molecule, the values for the EC50 (with OX40-ECD-hFc; in assay [5]) were 0.0249 µg/mL and 0.0735 µg/mL, respectively.

B4: murine OX40 hybridoma antibody 119H2 (antibody, V domains shown)
VH: EVKLDATGGGLVQPGRPMKLSCVASGFTFSDYWMNWVRQSPEKGLEWVAQIRNKPYNYETFYSDSVKGRFTISRDDSKSSVYLQMNNLRAEDMGIYYCTGYFDYWGQGTTLTVSS
VL: DIVLTQSPASLAVSLGQRATISCRASQSVSTSSYSYMHWYQQKPGQPPKLLIKYASNLESGVPARFSGSGSGTDFTLNIHPVEEEDTATYYCQHSWGIPPTFGGGTKLEIKR
notes: as for B3
As to B4, the “IC50 of reporter gene assay” value in assay [4] was 0.179 µg/mL. Besides, the EC50 with OX40-ECD-hFc was found to be 0.023 µg/mL; in assay [5], 0.0413 µg/mL.

B5: humanized anti-OX40 antibody hu177G5-DE (antibody, V domains shown)
VH: QVQLVESGGGLVKPGGSLRLSCAASGFTFSDFYMYWIRQAPGKGLEWVATISDGGSYTYYPDIVKGRFTISRDNAKNSLNLQMNSLRAEDTAVYYCTTKNGNHIGFAYWGQGTTVTVSS
VL: DIQMTQSPSSLSASVGDRVTITCRASENIYSNLAWYQQKPGKAPKLLVYAATNLADGVPSRFSGSGSGTDYTLTISSLQPEDFATYYCQHFWGIPWTFGGGTKVEIK
notes: Constructed as human IgG1 with constant region Ser239, Ala330 and Ile332 mutated to Asp, Leu and Glu; also called humanized antibody 177G5; combination D'
Take B5: the response in assay [1] was half-maximal at 0.096 µg/mL (EC50). Further, the “IC50 of reporter gene assay” value in assay [2] was found to be 0.309 µg/mL. Moreover, the “EC50 of ADCC activity” value in assay [3] was found to be 0.00236 µg/mL.

B6: murine OX40 hybridoma antibody 3G4 (antibody, V domains shown)
VH: EVQLQQSGPELVKPGTSVKMSCKASGYRFTSYVLHWVRRKPGQGLEWIGYVNPFNDNTRYNEKFKAKATLTSDKSSSTAYMDLVSLTSEDSAVYYCSRGLYDYSYVMDYWGQGTSVTVSS
VL: DIQMTQTTSSLSASLGDGVTITCQASQDIRNYLNWYQQKPDGTIKLLIYHTSKLHSGVPSRFSGGGSGTDFSLTISNLDQEDIATYFCQQSQTLPYTFGGGTKLEIKR
notes: as for B3
With B6, in assay [4], the “IC50 of reporter gene assay” value was 0.0361 µg/mL. In addition, the EC50 with OX40-ECD-hFc worked out at 0.0163 µg/mL; in assay [5], 0.0537 µg/mL.

B7: murine OX40 hybridoma antibody 9G7 (antibody, V domains shown)
VH: EVKLVESGGGLVQPGGSLKLSCAASGFTFSDYYMYWVRQTPEKRLEWVAYISNGDISTYYPDTVKGRFTISRDNAKNTLYLQMSRLKSEDTAMYYCARDDGYSAWFAYWGQGTLVTVSA
VL: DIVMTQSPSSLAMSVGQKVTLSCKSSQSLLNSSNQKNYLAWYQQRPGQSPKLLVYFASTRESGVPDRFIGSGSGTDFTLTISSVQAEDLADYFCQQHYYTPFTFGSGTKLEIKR
notes: as for B3
For B7, the “IC50 of reporter gene assay” value in assay [4] is about 0.0361 µg/mL. The EC50 with OX40-ECD-hFc is 0.0198 µg/mL; in assay [5], 0.0369 µg/mL.

B8: murine OX40 hybridoma antibody 177G5 (antibody, V domains shown)
VH: EVQLVESGGGLVKPGGSLKLSCAASGFTFSDFYMYWVRQTPEKRLEWVATISDGGSYTYYPDIVKGRFTISRDNAKNNLNLQMSSLKSDDTAMYYCTTKNGNHIGFAYWGQGTLVTVSA
VL: DIQMTQSPASLSVSVGETVTITCRASENIYSNLAWYQQKQGKSPQLLVYAATNLADGVPSRFSGSGSGTQYSLKINSLQSEDFGSYYCQHFWGIPWTFGGGTKLEIKR
notes: as for B3
Take B8: the “IC50 of reporter gene assay” value in assay [4] came to 0.253 µg/mL. For the same molecule, the EC50 came to 0.0215 µg/mL in the assay with OX40-ECD-hFc and 0.0499 µg/mL in assay [5].

B9: murine OX40 hybridoma antibody 1G2 (antibody, V domains shown)
VH: EVQLQQSGPDLVKPGASVKMSCKASGYRFTSYVMHWVKQRPGQGLEWIGYINPYNDNTRYNEKFKGKATLTSDKSSSTAYMELSSLTSEDSAVYYCAAYYGDYVYLDYWGQGTTLTVSS
VL: DIQMTQTTSSLSASLGDRVTISCRASQDINNYLNWYQQKPDGTVKLLIYYTSRLHSGVPSRFSGSGSGTDYSLIISNLEQEDIATYFCQQGNTLPWTFGGGTKLEIKR
notes: as for B3
Turning to B9, the “IC50 of reporter gene assay” value in assay [4] was found to be 0.117 µg/mL. Besides, the EC50 in the assay with OX40-ECD-hFc turned out to be 0.0157 µg/mL; in assay [5] it was 0.0805 µg/mL.
